Test results published in paper PMC9482650, “Quantitative fragmentomics allow affinity mapping of interactomes” (Nature Communications, 2022).
Blank lines part the entries; values can stand above or below the binder they belong to.

Columns and labels:
Assay in all cases: holdup assay
Parameters in all cases: key: below the threshold = too weak to quantify, mostly under pKd 3.1 to 4
LRRC7, Q96NW7 = molecular target: T1, LRRC7, Q96NW7
T1 sequence (Q96NW7 1440-1537, limits assumed, looked up): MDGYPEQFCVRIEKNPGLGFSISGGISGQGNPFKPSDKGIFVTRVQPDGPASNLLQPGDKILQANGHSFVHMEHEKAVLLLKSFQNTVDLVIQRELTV

SNTG2, Q9NY99 = molecular target: T2, SNTG2, Q9NY99
T2 sequence (Q9NY99 68-166, limits assumed, looked up): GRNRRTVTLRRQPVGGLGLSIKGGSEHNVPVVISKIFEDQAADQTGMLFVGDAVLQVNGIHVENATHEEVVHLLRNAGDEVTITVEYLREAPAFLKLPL

DLG4_2, P78352 = molecular target: DLG4_2, P78352
DLG4_2, P78352, sequence (P78352 155-259): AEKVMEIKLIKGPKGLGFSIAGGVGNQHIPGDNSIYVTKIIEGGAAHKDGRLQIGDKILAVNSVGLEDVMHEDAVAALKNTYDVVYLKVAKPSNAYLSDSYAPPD

SNTB1, Q13884 = molecular target: T3, SNTB1, Q13884
T3 sequence (Q13884 107-205, limits assumed, looked up): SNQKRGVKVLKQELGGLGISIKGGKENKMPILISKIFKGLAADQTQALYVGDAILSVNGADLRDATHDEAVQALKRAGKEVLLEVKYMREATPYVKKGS

CARD11, Q9BXL7 = molecular target: T4, CARD11, Q9BXL7
T4 sequence (Q9BXL7 662-765, limits assumed, looked up): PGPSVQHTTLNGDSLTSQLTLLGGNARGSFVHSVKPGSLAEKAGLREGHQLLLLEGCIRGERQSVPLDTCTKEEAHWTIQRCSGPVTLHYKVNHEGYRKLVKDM

GRASP, Q7Z6J2 = molecular target: GRASP, Q7Z6J2
GRASP, Q7Z6J2, sequence (Q7Z6J2 96-193): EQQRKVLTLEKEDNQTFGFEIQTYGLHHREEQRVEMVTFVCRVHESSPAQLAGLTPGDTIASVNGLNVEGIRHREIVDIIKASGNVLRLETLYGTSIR

FRMPD2_2, Q68DX3 = molecular target: FRMPD2_2, Q68DX3
FRMPD2_2, Q68DX3, sequence (Q68DX3 944-1038): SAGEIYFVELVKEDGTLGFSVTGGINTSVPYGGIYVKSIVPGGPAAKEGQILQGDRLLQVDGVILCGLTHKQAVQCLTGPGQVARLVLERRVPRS

NHERF3_4, Q5T2W1 = molecular target: T5, NHERF3_4, Q5T2W1
T5 sequence (Q5T2W1 373-468, limits assumed, looked up): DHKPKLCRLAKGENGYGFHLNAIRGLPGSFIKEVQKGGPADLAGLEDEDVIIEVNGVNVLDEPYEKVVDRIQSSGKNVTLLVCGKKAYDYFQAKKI

NHERF4_1, Q86UT5-2 = molecular target: NHERF4_1, Q86UT5-2
NHERF4_1, Q86UT5-2, sequence (Q86UT5 other isoform, or with tags, fused parts or gaps): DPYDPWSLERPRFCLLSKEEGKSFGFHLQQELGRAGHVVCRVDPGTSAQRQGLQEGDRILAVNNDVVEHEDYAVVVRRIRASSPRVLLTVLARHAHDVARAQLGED

TJP1_3, Q07157 = molecular target: TJP1_3, Q07157
TJP1_3, Q07157, sequence (Q07157 416-512): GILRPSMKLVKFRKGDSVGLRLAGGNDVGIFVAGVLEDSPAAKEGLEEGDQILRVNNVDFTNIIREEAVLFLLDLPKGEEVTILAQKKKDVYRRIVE

MPDZ_5, O75970 = molecular target: T6, MPDZ_5, O75970
T6 sequence (O75970 695-796, limits assumed, looked up): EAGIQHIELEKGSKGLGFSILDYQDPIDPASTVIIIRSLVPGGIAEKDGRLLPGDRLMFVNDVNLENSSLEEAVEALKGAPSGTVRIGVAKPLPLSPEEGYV

FRMPD1, Q5SYB0 = molecular target: T7, FRMPD1, Q5SYB0
T7 sequence (Q5SYB0 52-145, limits assumed, looked up): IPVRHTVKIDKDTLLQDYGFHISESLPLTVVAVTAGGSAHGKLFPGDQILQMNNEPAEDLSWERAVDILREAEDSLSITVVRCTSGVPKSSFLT

HTRA1, Q92743 = molecular target: HTRA1, Q92743
HTRA1, Q92743, sequence (Q92743 360-477): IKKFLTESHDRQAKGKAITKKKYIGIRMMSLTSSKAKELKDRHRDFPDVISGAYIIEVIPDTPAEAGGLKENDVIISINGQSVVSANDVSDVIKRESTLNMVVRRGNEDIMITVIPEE

GRIP2_3, Q9C0E4 = molecular target: GRIP2_3, Q9C0E4
GRIP2_3, Q9C0E4, sequence (Q9C0E4 238-339): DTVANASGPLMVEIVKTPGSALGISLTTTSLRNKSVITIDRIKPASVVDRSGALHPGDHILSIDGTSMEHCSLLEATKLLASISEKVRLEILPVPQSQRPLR

SIPA1L2, Q9P2F8 = molecular target: T8, SIPA1L2, Q9P2F8
T8 sequence (Q9P2F8 945-1036, limits assumed, looked up): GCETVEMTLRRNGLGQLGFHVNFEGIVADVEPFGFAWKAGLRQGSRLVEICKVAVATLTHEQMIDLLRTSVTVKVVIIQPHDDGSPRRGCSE

DLG1_2, Q12959 = molecular target: DLG1_2, Q12959
DLG1_2, Q12959, sequence (Q12959 314-412): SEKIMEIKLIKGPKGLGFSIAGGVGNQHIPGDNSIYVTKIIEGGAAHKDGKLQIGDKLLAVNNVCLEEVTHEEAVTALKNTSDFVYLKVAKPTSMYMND

HTRA4, P83105 = molecular target: T9, HTRA4, P83105
T9 sequence (P83105 378-476, limits assumed, looked up): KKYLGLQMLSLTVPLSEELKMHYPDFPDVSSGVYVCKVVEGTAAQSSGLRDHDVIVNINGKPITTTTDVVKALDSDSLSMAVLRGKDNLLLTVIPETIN

NHERF2_2, Q15599 = molecular target: NHERF2_2, Q15599
NHERF2_2, Q15599, sequence (Q15599 142-238): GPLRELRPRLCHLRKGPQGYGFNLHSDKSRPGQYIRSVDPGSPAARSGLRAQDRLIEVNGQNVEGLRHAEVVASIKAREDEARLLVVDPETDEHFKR

LAP2, Q96RT1 = molecular target: LAP2, Q96RT1
LAP2, Q96RT1, sequence (Q96RT1 other isoform, or with tags, fused parts or gaps): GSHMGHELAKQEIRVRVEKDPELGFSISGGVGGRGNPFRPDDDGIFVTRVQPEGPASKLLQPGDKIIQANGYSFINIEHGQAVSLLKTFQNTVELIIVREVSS

Inadl_5, Q8NI35 = molecular target: Inadl_5, Q8NI35
Inadl_5, Q8NI35, sequence (Q8NI35 673-780): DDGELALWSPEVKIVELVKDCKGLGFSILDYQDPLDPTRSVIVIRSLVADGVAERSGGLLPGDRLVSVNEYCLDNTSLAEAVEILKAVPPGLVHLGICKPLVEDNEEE

MPP2, Q14168 = molecular target: T10, MPP2, Q14168
T10 sequence (Q14168 180-250, limits assumed, looked up): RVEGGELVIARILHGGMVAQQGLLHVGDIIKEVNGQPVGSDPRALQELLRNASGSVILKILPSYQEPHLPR

Inadl_1, Q8NI35 = molecular target: Inadl_1, Q8NI35
Inadl_1, Q8NI35, sequence (Q8NI35 113-229): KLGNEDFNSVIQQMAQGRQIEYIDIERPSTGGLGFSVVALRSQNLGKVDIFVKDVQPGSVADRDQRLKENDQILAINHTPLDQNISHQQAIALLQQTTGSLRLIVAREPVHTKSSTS

PTPN13_1, Q12923 = molecular target: T11, PTPN13_1, Q12923
T11 sequence (Q12923 1088-1188, limits assumed, looked up): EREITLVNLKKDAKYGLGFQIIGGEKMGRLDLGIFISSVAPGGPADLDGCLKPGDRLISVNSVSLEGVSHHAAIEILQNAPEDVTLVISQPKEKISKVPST

PICK1, Q9NRD5 = molecular target: PICK1, Q9NRD5
PICK1, Q9NRD5, sequence (Q9NRD5 17-115): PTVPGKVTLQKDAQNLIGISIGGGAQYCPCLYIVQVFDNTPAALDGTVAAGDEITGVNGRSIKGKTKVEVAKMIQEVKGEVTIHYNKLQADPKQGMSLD

MAGI3_2, Q5TCQ9 = molecular target: MAGI3_2, Q5TCQ9
MAGI3_2, Q5TCQ9, sequence (Q5TCQ9 398-503): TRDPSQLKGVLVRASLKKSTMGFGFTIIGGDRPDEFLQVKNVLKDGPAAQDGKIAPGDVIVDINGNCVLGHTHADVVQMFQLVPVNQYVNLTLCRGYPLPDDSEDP

DLG4_3, P78352 = molecular target: DLG4_3, P78352
DLG4_3, P78352, sequence (P78352 306-403): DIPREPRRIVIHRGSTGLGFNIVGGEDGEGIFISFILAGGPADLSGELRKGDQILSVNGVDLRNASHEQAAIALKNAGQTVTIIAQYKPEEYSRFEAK

[1] = modified: phospho on T at position -2 from the C-terminal residue
[2] = plain residues with an end cap or a label only (N-terminal biotin on a linker: ado-ado)

- pKd (LRRC7, Q96NW7; [1]): below the threshold
- pKd (SNTG2, Q9NY99; [1]): below the threshold
- pKd (DLG4_2, P78352; [1]): below the threshold
- pKd (SNTB1, Q13884; [1]): below the threshold
- pKd (CARD11, Q9BXL7; [1]): below the threshold
- pKd (GRASP, Q7Z6J2; [1]): below the threshold
- pKd (FRMPD2_2, Q68DX3; [1]): below the threshold
- pKd (NHERF3_4, Q5T2W1; [1]): below the threshold
- pKd (NHERF4_1, Q86UT5-2; [1]): 3.69
- pKd (TJP1_3, Q07157; [1]): below the threshold
- pKd (MPDZ_5, O75970; [1]): below the threshold
- pKd (FRMPD1, Q5SYB0; [1]): below the threshold
- pKd (HTRA1, Q92743; [1]): 3.65
- pKd (GRIP2_3, Q9C0E4; [1]): below the threshold
- pKd (SIPA1L2, Q9P2F8; [1]): below the threshold
- pKd (DLG1_2, Q12959; [1]): below the threshold
- pKd (HTRA4, P83105; [1]): below the threshold
- pKd (NHERF2_2, Q15599; [1]): below the threshold
- pKd (LAP2, Q96RT1; [1]): below the threshold
- pKd (Inadl_5, Q8NI35; [1]): below the threshold
- pKd (MPP2, Q14168; [1]): below the threshold
- pKd (Inadl_1, Q8NI35; [1]): below the threshold
- pKd (PTPN13_1, Q12923; [1]): below the threshold
- pKd (PICK1, Q9NRD5; [1]): below the threshold
- pKd (MAGI3_2, Q5TCQ9; [1]): below the threshold
- pKd (DLG4_3, P78352; [1]): below the threshold
Binder: RRVRKLPSTTL [RPS6KA1_-2P, Q15418]

- pKd (LRRC7, Q96NW7; [2]): below the threshold
- pKd (SNTG2, Q9NY99; [2]): below the threshold
- pKd (DLG4_2, P78352; [2]): 4.88
- pKd (SNTB1, Q13884; [2]): 4.07
- pKd (CARD11, Q9BXL7; [2]): below the threshold
- pKd (GRASP, Q7Z6J2; [2]): 4.3
- pKd (FRMPD2_2, Q68DX3; [2]): 3.55
- pKd (NHERF3_4, Q5T2W1; [2]): 3.5
- pKd (NHERF4_1, Q86UT5-2; [2]): below the threshold
- pKd (TJP1_3, Q07157; [2]): below the threshold
- pKd (MPDZ_5, O75970; [2]): below the threshold
- pKd (FRMPD1, Q5SYB0; [2]): below the threshold
- pKd (HTRA1, Q92743; [2]): 4.36
- pKd (GRIP2_3, Q9C0E4; [2]): below the threshold
- pKd (SIPA1L2, Q9P2F8; [2]): below the threshold
- pKd (DLG1_2, Q12959; [2]): 4.98
- pKd (HTRA4, P83105; [2]): below the threshold
- pKd (NHERF2_2, Q15599; [2]): below the threshold
- pKd (LAP2, Q96RT1; [2]): 3.49
- pKd (Inadl_5, Q8NI35; [2]): below the threshold
- pKd (MPP2, Q14168; [2]): below the threshold
- pKd (Inadl_1, Q8NI35; [2]): below the threshold
- pKd (PTPN13_1, Q12923; [2]): below the threshold
- pKd (PICK1, Q9NRD5; [2]): below the threshold
- pKd (MAGI3_2, Q5TCQ9; [2]): 5.19
- pKd (DLG4_3, P78352; [2]): 4.85
Binder: SMLNRRTTPV [CACNG4, Q9UBN1]

- pKd (LRRC7, Q96NW7; [2]): below the threshold
- pKd (SNTG2, Q9NY99; [2]): below the threshold
- pKd (DLG4_2, P78352; [2]): below the threshold
- pKd (SNTB1, Q13884; [2]): below the threshold
- pKd (CARD11, Q9BXL7; [2]): below the threshold
- pKd (GRASP, Q7Z6J2; [2]): 4.13
- pKd (FRMPD2_2, Q68DX3; [2]): below the threshold
- pKd (NHERF3_4, Q5T2W1; [2]): below the threshold
- pKd (NHERF4_1, Q86UT5-2; [2]): 4.37
- pKd (TJP1_3, Q07157; [2]): below the threshold
- pKd (MPDZ_5, O75970; [2]): below the threshold
- pKd (FRMPD1, Q5SYB0; [2]): below the threshold
- pKd (HTRA1, Q92743; [2]): below the threshold
- pKd (GRIP2_3, Q9C0E4; [2]): below the threshold
- pKd (SIPA1L2, Q9P2F8; [2]): below the threshold
- pKd (DLG1_2, Q12959; [2]): below the threshold
- pKd (HTRA4, P83105; [2]): below the threshold
- pKd (NHERF2_2, Q15599; [2]): below the threshold
- pKd (LAP2, Q96RT1; [2]): below the threshold
- pKd (Inadl_5, Q8NI35; [2]): below the threshold
- pKd (MPP2, Q14168; [2]): below the threshold
- pKd (Inadl_1, Q8NI35; [2]): below the threshold
- pKd (PTPN13_1, Q12923; [2]): below the threshold
- pKd (PICK1, Q9NRD5; [2]): below the threshold
- pKd (MAGI3_2, Q5TCQ9; [2]): below the threshold
- pKd (DLG4_3, P78352; [2]): below the threshold
Binder: LSEFKAMDSF [CTNNA2, P26232]
